Reference: patent US20160244728A1, “CULTURE METHOD FOR PLURIPOTENT STEM CELLS AND KIT AND MEDIUM FOR CULTURE OF PLURIPOTENT STEM CELLS USED THEREIN” (FUJIFILM Corporation, priority 2013, published 2016)

B1: RCP-15: recombinant polypeptide, human vitronectin positions 56-459 (protein)
chain: GPLGYTVYDDGEEKNNATVHEQVGGPSLTSDLQAQSKGNPEQTPVLKPEEEAPAPEVGASKPEGIDSRPETLHPGRPQPPAEEELCSGKPFDAFTDLKNGSLFAFRGQYCYELDEKAVRPGYPKLIRDVWGIEGPIDAAFTRINCQGKTYLFKGSQYWRFEDGVLDPDYPRNISDGFDGIPDNVDAALALPAHSYSGRERVYFFKGKQYWEYQFQHQPSQEECEGSSLSAVFEHFAMMQRDSWEDIFELLFWGRTSAGTRQPQFISRDWHGVPGQVDAAMAGRIYISGMAPRPSLAKKQRFRHRNRKGYRSQRGHSRGRNQNSRRPSRATWLSLFSSEESNLGANNYDDYRMDWLVPATCEPIQSVFFFSGDKYYRVNLRTRRVDTVDPPYPRSIAQYWLGCPAPGHL
modifications: Synthetic Peptide RCP-15
B2: RCP-1: recombinant polypeptide, human vitronectin positions 1-55 and 269-459, methionine on the N-terminal (protein)
chain: MDQESCKGRCTEGFNVDKKCQCDELCSYYQSCCTDYTAECKPQVTRGDVFTMPEDEPSQEECEGSSLSAVFEHFAMMQRDSWEDIFELLFWGRTSAGTRQPQFISRDWHGVPGQVDAAMAGRIYISGMAPRPSLAKKQRFRHRNRKGYRSQRGHSRGRNQNSRRPSRATWLSLFSSEESNLGANNYDDYRMDWLVPATCEPIQSVFFFSGDKYYRVNLRTRRVDTVDPPYPRSIAQYWLGCPAPGHL
modifications: Synthetic Peptide RCP-1
B3: RCP-11: recombinant polypeptide corresponding to the sequence of natural human vitronectin, positions 1-459 (protein)
chain: GPLGDQESCKGRCTEGFNVDKKCQCDELCSYYQSCCTDYTAECKPQVTRGDVFTMPEDEYTVYDDGEEKNNATVHEQVGGPSLTSDLQAQSKGNPEQTPVLKPEEEAPAPEVGASKPEGIDSRPETLHPGRPQPPAEEELCSGKPFDAFTDLKNGSLFAFRGQYCYELDEKAVRPGYPKLIRDVWGIEGPIDAAFTRINCQGKTYLFKGSQYWRFEDGVLDPDYPRNISDGFDGIPDNVDAALALPAHSYSGRERVYFFKGKQYWEYQFQHQPSQEECEGSSLSAVFEHFAMMQRDSWEDIFELLFWGRTSAGTRQPQFISRDWHGVPGQVDAAMAGRIYISGMAPRPSLAKKQRFRHRNRKGYRSQRGHSRGRNQNSRRPSRATWLSLFSSEESNLGANNYDDYRMDWLVPATCEPIQSVFFFSGDKYYRVNLRTRRVDTVDPPYPRSIAQYWLGCPAPGHL
modifications: Synthetic Peptide CRP-11
B4: RCP-16: recombinant polypeptide, human vitronectin positions 269-459 (protein)
chain: GPLGPSQEECEGSSLSAVFEHFAMMQRDSWEDIFELLFWGRTSAGTRQPQFISRDWHGVPGQVDAAMAGRIYISGMAPRPSLAKKQRFRHRNRKGYRSQRGHSRGRNQNSRRPSRATWLSLFSSEESNLGANNYDDYRMDWLVPATCEPIQSVFFFSGDKYYRVNLRTRRVDTVDPPYPRSIAQYWLGCPAPGHL
modifications: Synthetic Peptide RCP-16
B5: RCP-13: recombinant polypeptide, human vitronectin positions 1-55, 56-129 (protein)
chain: GPLGDQESCKGRCTEGFNVDKKCQCDELCSYYQSCCTDYTAECKPQVTRGDVFTMPEDEYTVYDDGEEKNNATVHEQVGGPSLTSDLQAQSKGNPEQTPVLKPEEEAPAPEVGASKPEGIDSRPETLHPGRPQP
modifications: Synthetic Peptide RCP-13

Key:
[1] = Evaluation of adsorbability with respect to culture dish; format: physicochemical; conditions: FIG. 1; for adsorbability with respect to the plate (in words): 0 to 200 pmol/cm^2 added, 2 hours at 37° C., compared with RCP-11
Experimental: Each of the polypeptides obtained as above was diluted with a predetermined buffer such that they could be added to wells at a predetermined final concentration of 0 pmol/cm^2 to 200 pmol/cm^2. Thereafter, each of the polypeptides was added in an amount of 64 μL to a plasma-treated 96-well plate made of polystyrene (Tissue Culture-Treated, Falcon). Each of the polypeptides was allowed to adsorb onto the plate by being incubated for 2 hours at 37° C., and then the wells were washed twice with PBS, thereby obtaining surfaces coated with each of the polypeptides of RCP-1 to RCP-16.
Among the surfaces coated with each of the polypeptides obtained as above, the surfaces coated with RCP-1 and RCP-11 to RCP-16 were applied with 64 μL of a borate buffer and 64 μL of 1 N NaOH, followed by incubation for 24 hours at 80° C. and 100% humidity. After the resultant was air-cooled, 75 μL of a borate buffer was added to each well, and 50 μL of a reaction solution obtained by mixing OPA (o-phthalaldehyde: Wako Pure Chemical Industries, Ltd./methanol solution (160 mg/ml)) with N-acetyl-L-cysteine (NAC: Wako Pure Chemical Industries, Ltd.)/borate buffer solution (2 mg/ml) at a ratio of 1:100 (mass ratio) was further added thereto. After incubation for 30 minutes at 40° C., the fluorescence intensity thereof was measured by using an Envision Multilabel Counter (PerkinElmer Inc.) (excitation 355 nm/fluorescence 486 nm). A calibration curve was separately prepared from each of the polypeptide solutions so as to calculate the amount of the polypeptide adsorbed. In FIG. 1, a black rhombus indicates RCP-1, a black square indicates RCP-11, a black triangle indicates RCP-12, a black circle indicates RCP-13, a white rhombus indicates RCP-14, a white square indicates RCP-15, and a white triangle indicates RCP-16.

human iPS cells [2] = assay: Evaluation of maintenance of undifferentiated state; format: cell-based; conditions: for form of the iPS cell colony: FIGS. 3A to 3E, TeSR2, subcultured every six days; for maintenance of the undifferentiated state (NANOG staining): FIGS. 4A to 4E, after culture for 1 month
Experimental: iPS cells collected in the same manner as in <Cell adhesiveness evaluation 1> were suspended in TeSR2. The iPS cells were seeded into 6-well plate (Tissue culture-treated, Falcon), onto which each of the samples 1, 2, 5, 6, and 7 used in <Cell adhesiveness evaluation 1> was adsorbed in the same manner as in <Cell adhesiveness evaluation 1>, and cultured in a CO2 incubator at 37° C. Except for the day after the seeding, the medium was replaced every day. In the same method as described above, the cells were subcultured every six days. FIGS. 3A to 3E show forms of the iPS cells cultured on each of the samples.
After being cultured for 1 month under the conditions described above, the cells were immobilized using 4% paraformaldehyde and treated with 1% Triton-X/PBS so as to enhance the membrane permeability. After the cells were subjected to a blocking treatment using an Image IT Signal Enhancer (Invitrogen), an anti-human NANOG antibody (AF 1997, R&D Systems, Inc.), an Alexa Fluor 555 binding rabbit anti-goat IgG antibody (Invitrogen), and DAPI (Dojindo Molecular Technologies, Inc.) were added thereto for labeling, and the cells were imaged using a fluorescence microscope. FIGS. 4A to 4E show the fluorescence microscopic images.
FIGS. 3A and 4A show the iPS cells cultured on RCP-1; FIGS. 3B and 4B show the iPS cells cultured on RCP-11; FIGS. 3C and 4C show the iPS cells cultured on natural human vitronectin; FIGS. 3D and 4D show the iPS cells cultured on rLaminin-5; and FIGS. 3E and 4E show the iPS cells cultured on rLaminin-511. The scale bar in the images indicates 100 μm. In FIGS. 3A to 3E, the images on the left side are full images of the colony, and the images on the right side are magnified images. In FIGS. 4A to 4E, the images on the left side are images of the cells stained with DAPI, and the images on the right side are images of the cells stained with an anti-NANOG antibody. The scale bar in FIGS. 3 and 4 indicates 200 μm.

human iPS cells [3] = assay: Growth evaluation, growth curves over 8 days; format: cell-based; conditions: FIG. 2; 250 cells/well
Experimental: The iPS cells collected in the same manner as in <Cell adhesiveness evaluation 1> were seeded into a 96-well plate, onto which RCP-1, RCP-11, and natural human vitronectin were adsorbed, at a ratio of 250 cells/well and cultured for 8 days in a 5% CO2 incubator at 37° C. The number of adhesive cells after different days of culture was measured in the same manner as in <Cell adhesiveness evaluation 1>, thereby obtaining growth curves. […] In FIG. 2, a black rhombus indicates a case using RCP-1, and a black square indicates a case using RCP-11.

Row | Molecule | adsorbability with respect to the plate (in words) [1] | form of the iPS cell colony (human iPS cells [2]) | maintenance of the undifferentiated state (NANOG staining) (human iPS cells [2]) | number of cells on Day 8 of culture relative to the case where RCP-1 was used (human iPS cells [3]) | amount adsorbed onto the plate relative to the polypeptide including SEQ ID NO: 3 [1]
1 | B1 | excellent adsorbability |  |  |  | 
2 | B2 | excellent adsorbability | form specific to undifferentiated cells | strongly expressed NANOG in the entirety of the colony |  | 
3 | B3 |  | form specific to undifferentiated cells | strongly expressed NANOG in the entirety of the colony | about 1/3 | 
4 | B4 | excellent adsorbability |  |  |  | 
5 | B5 |  |  |  |  | about 1/4
